± gives the uncertainty stated by the source.
Test: protein stability index of a GFP-peptide fusion (yeast GPS) (PSI 1-4); higher = more stable; sorted into four equal gates, so the index is relative within each strain
Method in brief: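 Tiled 17-residue peptides from yeast proteins were fused downstream of GFP on a plasmid that also expresses Cherry, and the pooled library was carried in yeast. Mid-log cultures grown in leucine-free medium were sorted into four equal gates by GFP/Cherry fluorescence ratio. Plasmids from each gate were PCR-amplified and Illumina-sequenced, and reads were assigned to strains by barcodes. Each peptide's protein stability index is the sum, over gates, of the gate's read frequency multiplied by its gate number.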

Q: For NLSRYPKSGIDIFVYLT [MTR3], which protein stability index (doa10∆) is on record?
A: 2.35 ± 0.049

Q: What about the protein stability index (pdr5∆) of the same sequence?
A: 1.97 ± 0.052

Q: What about the protein stability index (san1∆) of the same sequence?
A: 2.07 ± 0.079

Q: And the protein stability index (ubr1∆)?
A: 2.27 ± 0.054

Q: What does the source list for NLYHVTEDGWIYHGNHD [PRE2]?
A: protein stability index (pdr5∆): 2.97 ± 0.23; protein stability index (san1∆): 2.88 ± 0.18; protein stability index (ubr1∆): 3.28 ± 0.22

Q: Which protein stability index (doa10∆) does the source give for NMLPQRQSSVGSLNATN [SNF2] here?
A: 2.8 ± 0.082

Q: What about the protein stability index (pdr5∆) of the same sequence?
A: 3.3 ± 0.073

Q: What about the protein stability index (san1∆) of the same sequence?
A: 2.78 ± 0.052

Q: What about the protein stability index (ubr1∆) of the same sequence?
A: 3.08 ± 0.046

Q: Which results are given for NMMDAISFVLGVRSNHL [SMC1]?
A: protein stability index (doa10∆): 2.28 ± 0.063; protein stability index (pdr5∆): 2.58 ± 0.079; protein stability index (san1∆): 2.77 ± 0.067; protein stability index (ubr1∆): 2.66 ± 0.064

Q: For NNEMKSLQRSKSSFVKE [SMC1], which protein stability index (pdr5∆) is on record?
A: 3.25 ± 0.13

Q: And the protein stability index (san1∆)?
A: 3.03 ± 0.11

Q: What about the protein stability index (ubr1∆) of the same sequence?
A: 3.28 ± 0.073

Q: For NNHNMRNNSNNKTSNNN [SWI1], which protein stability index (doa10∆) is on record?
A: 2.56 ± 0.088

Q: And the protein stability index (pdr5∆)?
A: 2.55 ± 0.068

Q: And the protein stability index (san1∆)?
A: 1.85 ± 0.093

Q: And the protein stability index (ubr1∆)?
A: 2.6 ± 0.049

Q: What does the source list for NNIKNGTNNISQHGQGN [YDL088C/ASM4]?
A: protein stability index (doa10∆): 2.93 ± 0.046; protein stability index (pdr5∆): 2.87 ± 0.033; protein stability index (san1∆): 3.05 ± 0.034; protein stability index (ubr1∆): 3.06 ± 0.021

Q: Which protein stability index (doa10∆) does the source give for NNKKVVGTAIDSILNYA [ECM29] here?
A: 2.4 ± 0.21

Q: What about the protein stability index (pdr5∆) of the same sequence?
A: 2.75 ± 0.12

Q: And the protein stability index (ubr1∆)?
A: 3.06 ± 0.083

Q: For NNKNKRVTGAGGQQRRM [RPC53], which protein stability index (pdr5∆) is on record?
A: 2.78 ± 0.2

Q: What about the protein stability index (ubr1∆) of the same sequence?
A: 3.33 ± 0.073

Q: Which results are given for NNNNNNNNSNNIMSASG [YGL172W/NUP49]?
A: protein stability index (doa10∆): 2.73 ± 0.059; protein stability index (pdr5∆): 2.48 ± 0.038; protein stability index (san1∆): 2.67 ± 0.077; protein stability index (ubr1∆): 3.1 ± 0.059

Q: Which protein stability index (doa10∆) does the source give for NNPLVQKKNFLFKPLNK [ARP7] here?
A: 2.33 ± 0.23

Q: What about the protein stability index (pdr5∆) of the same sequence?
A: 2.51 ± 0.14

Q: And the protein stability index (san1∆)?
A: 2.2 ± 0.28

Q: For NNRMGSYDCTGVNELAP [POP1], which protein stability index (doa10∆) is on record?
A: 2.63 ± 0.099

Q: What about the protein stability index (pdr5∆) of the same sequence?
A: 2.42 ± 0.076

Q: What about the protein stability index (san1∆) of the same sequence?
A: 2.74 ± 0.085

Q: What about the protein stability index (ubr1∆) of the same sequence?
A: 2.79 ± 0.059

Q: Which protein stability index (doa10∆) does the source give for NNRSVSMQTIAETIILS [SRB5] here?
A: 2.02 ± 0.052

Q: And the protein stability index (pdr5∆)?
A: 1.91 ± 0.068

Q: What about the protein stability index (san1∆) of the same sequence?
A: 1.56 ± 0.07

Q: What about the protein stability index (ubr1∆) of the same sequence?
A: 1.84 ± 0.031

Q: Which protein stability index (doa10∆) does the source give for NNRWAENNYKKRLLGTA [RPS23A] here?
A: 2.37 ± 0.27

Q: And the protein stability index (pdr5∆)?
A: 2.78 ± 0.16

Q: With NNSALSNVNSDIYFKLK [RPT3] as the sequence, how does the protein stability index (doa10∆) read?
A: 3.12 ± 0.14

Q: What about the protein stability index (pdr5∆) of the same sequence?
A: 2.96 ± 0.12

Q: What about the protein stability index (san1∆) of the same sequence?
A: 3.27 ± 0.14

Q: And the protein stability index (ubr1∆)?
A: 3.25 ± 0.073

Q: What does the source list for NNSNNNNIIRIQQLISQ [SNF11]?
A: protein stability index (doa10∆): 2.25 ± 0.06; protein stability index (pdr5∆): 2.39 ± 0.075; protein stability index (san1∆): 2.54 ± 0.08; protein stability index (ubr1∆): 2.69 ± 0.046

Q: Which protein stability index (doa10∆) does the source give for NNTEKNDVTNKNINIGK [SIR4] here?
A: 2.1 ± 0.055

Q: What about the protein stability index (pdr5∆) of the same sequence?
A: 2.21 ± 0.052

Q: What about the protein stability index (san1∆) of the same sequence?
A: 2.9 ± 0.043

Q: What about the protein stability index (ubr1∆) of the same sequence?
A: 2.37 ± 0.044

Q: Which protein stability index (doa10∆) does the source give for NNTNNNNTNTGASGVDD [SWI1] here?
A: 2.75 ± 0.073

Q: What about the protein stability index (pdr5∆) of the same sequence?
A: 2.95 ± 0.065

Q: What about the protein stability index (san1∆) of the same sequence?
A: 3.05 ± 0.072

Q: And the protein stability index (ubr1∆)?
A: 3.3 ± 0.048

Q: What does the source list for NNWFSLPGDMLAVCDEL [SIN4]?
A: protein stability index (doa10∆): 2.33 ± 0.073; protein stability index (pdr5∆): 2.21 ± 0.079; protein stability index (san1∆): 1.73 ± 0.13; protein stability index (ubr1∆): 1.85 ± 0.067

Q: Which results are given for NPFEDDMDGVDFNQAFE [BRN1]?
A: protein stability index (doa10∆): 3.31 ± 0.05; protein stability index (pdr5∆): 3.21 ± 0.064; protein stability index (san1∆): 3.39 ± 0.038; protein stability index (ubr1∆): 3.3 ± 0.049

Q: With NPHQKDQLIISSSANKL [YML103C/NUP188] as the sequence, how does the protein stability index (doa10∆) read?
A: 2.45 ± 0.15

Q: What about the protein stability index (pdr5∆) of the same sequence?
A: 2.71 ± 0.094

Q: And the protein stability index (san1∆)?
A: 2.29 ± 0.15

Q: And the protein stability index (ubr1∆)?
A: 2.78 ± 0.069

Q: What does the source list for NPIIENNVDNKYKSGGK [SSN2]?
A: protein stability index (doa10∆): 2.92 ± 0.052; protein stability index (pdr5∆): 3.01 ± 0.041; protein stability index (san1∆): 3.04 ± 0.043; protein stability index (ubr1∆): 3.07 ± 0.041

Q: For NPKYDTSNASMNTTLGS [YAR002W/NUP60], which protein stability index (doa10∆) is on record?
A: 3.12 ± 0.045

Q: What about the protein stability index (pdr5∆) of the same sequence?
A: 3.15 ± 0.044

Q: What about the protein stability index (san1∆) of the same sequence?
A: 3.12 ± 0.034

Q: And the protein stability index (ubr1∆)?
A: 3.14 ± 0.047

Q: With NPLAKTMADAVRELGIL [SEC65] as the sequence, how does the protein stability index (doa10∆) read?
A: 2.78 ± 0.058

Q: And the protein stability index (pdr5∆)?
A: 2.3 ± 0.06

Q: What about the protein stability index (san1∆) of the same sequence?
A: 2.42 ± 0.075

Q: What about the protein stability index (ubr1∆) of the same sequence?
A: 1.84 ± 0.053

Q: What does the source list for NPMKKHKPNEGRTPNIS [SIR4]?
A: protein stability index (doa10∆): 2.88 ± 0.068; protein stability index (pdr5∆): 2.86 ± 0.055; protein stability index (san1∆): 2.88 ± 0.052; protein stability index (ubr1∆): 2.97 ± 0.036

Q: For NPPYSQCIVYPNCLFIL [SOH1], which protein stability index (doa10∆) is on record?
A: 1.76 ± 0.038

Q: What about the protein stability index (pdr5∆) of the same sequence?
A: 2.06 ± 0.044

Q: And the protein stability index (san1∆)?
A: 1.86 ± 0.06

Q: And the protein stability index (ubr1∆)?
A: 1.86 ± 0.035

Q: Which protein stability index (doa10∆) does the source give for NPVTLNEDSKAFHTAVL [NUT1] here?
A: 2.81 ± 0.057

Q: What about the protein stability index (pdr5∆) of the same sequence?
A: 2.96 ± 0.076

Q: And the protein stability index (san1∆)?
A: 2.82 ± 0.075

Q: And the protein stability index (ubr1∆)?
A: 2.41 ± 0.059

Q: Which results are given for NQDSVKTYALESINNVV [RPN2]?
A: protein stability index (doa10∆): 3.23 ± 0.1; protein stability index (pdr5∆): 3.21 ± 0.1; protein stability index (san1∆): 2.95 ± 0.074; protein stability index (ubr1∆): 3.31 ± 0.058

Q: Which protein stability index (doa10∆) does the source give for NQLEDFILELEHKTPEL [YIL149C/MLP2] here?
A: 2.74 ± 0.14

Q: And the protein stability index (pdr5∆)?
A: 3.28 ± 0.16

Q: What about the protein stability index (san1∆) of the same sequence?
A: 3.07 ± 0.14

Q: What about the protein stability index (ubr1∆) of the same sequence?
A: 3.35 ± 0.12

Q: Which results are given for NQSFIQQKANLLSSSNF [COR1]?
A: protein stability index (doa10∆): 2.17 ± 0.067; protein stability index (pdr5∆): 1.91 ± 0.069; protein stability index (san1∆): 2.04 ± 0.083; protein stability index (ubr1∆): 1.76 ± 0.042

Q: With NQTNINSLAVRGKDCTV [SCL1] as the sequence, how does the protein stability index (doa10∆) read?
A: 2.83 ± 0.14

Q: And the protein stability index (pdr5∆)?
A: 3.26 ± 0.088

Q: What about the protein stability index (san1∆) of the same sequence?
A: 3.29 ± 0.068

Q: What about the protein stability index (ubr1∆) of the same sequence?
A: 3.19 ± 0.12

Q: For NQVMMDRKIQGWLGALT [ARP7], which protein stability index (doa10∆) is on record?
A: 2.84 ± 0.069

Q: And the protein stability index (pdr5∆)?
A: 3.18 ± 0.052

Q: And the protein stability index (san1∆)?
A: 3 ± 0.054

Q: And the protein stability index (ubr1∆)?
A: 2.98 ± 0.044

Q: For NRERFISKLFLRGDSVI [SMD2], which protein stability index (doa10∆) is on record?
A: 2.91 ± 0.076

Q: And the protein stability index (pdr5∆)?
A: 1.65 ± 0.089

Q: What about the protein stability index (san1∆) of the same sequence?
A: 1.51 ± 0.14

Q: What about the protein stability index (ubr1∆) of the same sequence?
A: 3.03 ± 0.15

Q: Which protein stability index (doa10∆) does the source give for NRGNKKRHRSSYYDNDL [YML031W/NDC1] here?
A: 3.02 ± 0.13

Q: What about the protein stability index (pdr5∆) of the same sequence?
A: 3.29 ± 0.095

Q: What about the protein stability index (san1∆) of the same sequence?
A: 3.24 ± 0.072

Q: And the protein stability index (ubr1∆)?
A: 3 ± 0.11

Q: With NRKVLQALEKIGIVEIS [RPS19A] as the sequence, how does the protein stability index (doa10∆) read?
A: 2.34 ± 0.1

Q: What about the protein stability index (pdr5∆) of the same sequence?
A: 2.27 ± 0.1

Q: What about the protein stability index (san1∆) of the same sequence?
A: 2.24 ± 0.074

Q: And the protein stability index (ubr1∆)?
A: 2.31 ± 0.07

Q: For NRKVRAGRGFTLAEVKA [RPL13A], which protein stability index (doa10∆) is on record?
A: 2.84 ± 0.054

Q: And the protein stability index (pdr5∆)?
A: 2.97 ± 0.061

Q: And the protein stability index (san1∆)?
A: 2.82 ± 0.043

Q: And the protein stability index (ubr1∆)?
A: 2.48 ± 0.044

Q: For NRMQISPDQMRNLQMGL [GRR1], which protein stability index (pdr5∆) is on record?
A: 3.18 ± 0.12

Q: And the protein stability index (san1∆)?
A: 3.27 ± 0.11

Q: What about the protein stability index (ubr1∆) of the same sequence?
A: 2.83 ± 0.12

Q: Which protein stability index (doa10∆) does the source give for NRQAAASVVPSASSLVI [RPL12A] here?
A: 1.73 ± 0.03

Q: What about the protein stability index (pdr5∆) of the same sequence?
A: 2.17 ± 0.038

Q: What about the protein stability index (san1∆) of the same sequence?
A: 1.98 ± 0.049

Q: And the protein stability index (ubr1∆)?
A: 1.83 ± 0.032

Q: For NRRGMLALSGTSASNTS [SNF5], which protein stability index (doa10∆) is on record?
A: 3.02 ± 0.064

Q: What about the protein stability index (pdr5∆) of the same sequence?
A: 3.1 ± 0.064

Q: What about the protein stability index (san1∆) of the same sequence?
A: 2.86 ± 0.064

Q: What about the protein stability index (ubr1∆) of the same sequence?
A: 2.92 ± 0.066

Q: With NRRKQSFVLNKNTIDFE [RPN4] as the sequence, how does the protein stability index (doa10∆) read?
A: 2.86 ± 0.062

Q: And the protein stability index (pdr5∆)?
A: 1.74 ± 0.045

Q: And the protein stability index (san1∆)?
A: 2.1 ± 0.075

Q: What about the protein stability index (ubr1∆) of the same sequence?
A: 1.88 ± 0.044

From the supplement of paper PMC9732359
